Experiments:
[1] = biological target: T1, YTHDC1 YTH domain (Homo sapiens, UniProt Q96MU7 345-509); assay: ITC
[2] = biological target: T1, YTHDC1 YTH domain; assay: X-ray crystallography

Binder	binding result [1]	other results
CGCGGACTCTG (ssDNA, none) [unmodified 11-nt ssDNA]	no binding	–
CGCGGACUCUG (ssRNA, none) [unmodified 11-nt ssRNA]	no binding	–
CGCGGACTTC (ssDNA, N6-methyladenine at A6) [10-nt N6mA ssDNA]	–	binding result [2]: binds
CGCGGACTCTG (ssDNA, N6-methyladenine at A6) [11-nt N6mA ssDNA]	–	Kd [1]: 0.01 µM

Source: PMC7544203
